Assays:
Dbp6 ΔN [1] = molecular target: T1, Dbp6 ΔN (Saccharomyces cerevisiae, UniProt P53734 1-629, del24-128); experiment: EMSA; 0.5 uM protein; like WT; EMSA: 1 nM 32P-RNA, RB 1x (composition not in the material), RNasin, 15 min at 30 C, native PAGE in TBE; bridging: 0.8 uM Dbp6, RB 1x, 15 min at 30 C; details: protein: recombinant; tags: N-terminal His6; chain copies: 2; label: 32P
T1 sequence: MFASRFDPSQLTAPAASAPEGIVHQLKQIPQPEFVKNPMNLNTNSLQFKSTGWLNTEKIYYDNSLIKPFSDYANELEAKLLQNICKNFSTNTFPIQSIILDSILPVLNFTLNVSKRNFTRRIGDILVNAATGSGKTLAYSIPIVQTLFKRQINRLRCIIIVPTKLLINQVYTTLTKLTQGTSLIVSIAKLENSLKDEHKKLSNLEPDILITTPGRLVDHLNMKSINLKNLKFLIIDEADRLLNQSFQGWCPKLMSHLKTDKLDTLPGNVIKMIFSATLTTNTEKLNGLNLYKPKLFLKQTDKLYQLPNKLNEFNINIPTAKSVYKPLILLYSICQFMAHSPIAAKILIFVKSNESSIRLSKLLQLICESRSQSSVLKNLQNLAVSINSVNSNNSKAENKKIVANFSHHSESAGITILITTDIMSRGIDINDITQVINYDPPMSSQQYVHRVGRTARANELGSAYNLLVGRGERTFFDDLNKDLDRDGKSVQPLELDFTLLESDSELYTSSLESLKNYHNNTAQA

Dbp6 M-II = molecular target: T2, Dbp6 M-II (Saccharomyces cerevisiae, UniProt P53734 1-629, E342A); experiment: EMSA; 0.25 uM protein; stronger than WT; EMSA: 1 nM 32P-RNA, RB 1x (composition not in the material), RNasin, 15 min at 30 C, native PAGE in TBE; bridging: 0.8 uM Dbp6, RB 1x, 15 min at 30 C; details: protein: recombinant, tags: N-terminal His6, chain copies: 2
T2 sequence: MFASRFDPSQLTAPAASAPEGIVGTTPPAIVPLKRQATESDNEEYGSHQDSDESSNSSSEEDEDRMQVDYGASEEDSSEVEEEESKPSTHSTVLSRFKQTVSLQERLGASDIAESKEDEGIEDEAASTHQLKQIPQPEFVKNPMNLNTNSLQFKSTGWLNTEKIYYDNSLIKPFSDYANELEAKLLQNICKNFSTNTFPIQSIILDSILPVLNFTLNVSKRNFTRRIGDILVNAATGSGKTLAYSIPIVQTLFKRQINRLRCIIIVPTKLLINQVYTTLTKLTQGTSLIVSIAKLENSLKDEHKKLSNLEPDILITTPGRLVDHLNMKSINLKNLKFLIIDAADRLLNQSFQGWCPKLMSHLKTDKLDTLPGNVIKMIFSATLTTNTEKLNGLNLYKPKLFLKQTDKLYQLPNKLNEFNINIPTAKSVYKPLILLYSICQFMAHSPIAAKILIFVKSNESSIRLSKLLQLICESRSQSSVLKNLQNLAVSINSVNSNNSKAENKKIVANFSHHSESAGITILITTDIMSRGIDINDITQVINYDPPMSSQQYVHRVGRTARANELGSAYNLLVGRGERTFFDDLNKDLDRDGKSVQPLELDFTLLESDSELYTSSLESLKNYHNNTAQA

Dbp6 M-I [2] = molecular target: T3, Dbp6 M-I (Saccharomyces cerevisiae, UniProt P53734 1-629, K240A); experiment: EMSA; 0.5 uM protein; stronger than WT; EMSA: 1 nM 32P-RNA, RB 1x (composition not in the material), RNasin, 15 min at 30 C, native PAGE in TBE; bridging: 0.8 uM Dbp6, RB 1x, 15 min at 30 C; details: protein: recombinant; tags: N-terminal His6; chain copies: 2; label: 32P
T3 sequence: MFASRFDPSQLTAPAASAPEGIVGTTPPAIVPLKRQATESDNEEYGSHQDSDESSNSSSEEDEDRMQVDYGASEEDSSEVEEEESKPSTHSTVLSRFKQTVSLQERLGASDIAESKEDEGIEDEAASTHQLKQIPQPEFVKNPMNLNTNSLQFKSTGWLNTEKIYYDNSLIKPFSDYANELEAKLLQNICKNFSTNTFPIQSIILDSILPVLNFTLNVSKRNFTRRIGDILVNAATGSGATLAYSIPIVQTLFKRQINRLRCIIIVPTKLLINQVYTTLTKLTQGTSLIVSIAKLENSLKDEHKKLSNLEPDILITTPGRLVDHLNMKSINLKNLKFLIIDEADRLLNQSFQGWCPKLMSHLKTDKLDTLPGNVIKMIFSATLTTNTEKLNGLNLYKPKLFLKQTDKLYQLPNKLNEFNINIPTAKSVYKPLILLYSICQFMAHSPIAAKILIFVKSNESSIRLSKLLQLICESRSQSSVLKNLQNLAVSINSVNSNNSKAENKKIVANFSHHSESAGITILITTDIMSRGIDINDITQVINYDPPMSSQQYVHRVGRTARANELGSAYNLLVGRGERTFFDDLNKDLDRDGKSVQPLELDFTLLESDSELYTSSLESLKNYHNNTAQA

Dbp6 ΔN [3] = molecular target: T1, Dbp6 ΔN; experiment: EMSA; 0.25 uM protein; like WT; EMSA: 1 nM 32P-RNA, RB 1x (composition not in the material), RNasin, 15 min at 30 C, native PAGE in TBE; bridging: 0.8 uM Dbp6, RB 1x, 15 min at 30 C; details: protein: recombinant; tags: N-terminal His6; chain copies: 2; label: 32P on ss38-mer; 3' overhang 20 nt on strand 1; 38 bp region with one C-C mismatch
Dbp6 M-I [4] = molecular target: T3, Dbp6 M-I; experiment: EMSA; 0.25 uM protein; not increased over WT; EMSA: 1 nM 32P-RNA, RB 1x (composition not in the material), RNasin, 15 min at 30 C, native PAGE in TBE; bridging: 0.8 uM Dbp6, RB 1x, 15 min at 30 C; details: protein: recombinant; tags: N-terminal His6; chain copies: 2; label: 32P on ss38-mer; 3' overhang 20 nt on strand 1; 38 bp region with one C-C mismatch

Measured: binding result

B1: ss38-mer (ssRNA)
RNA: CAGAACCGCUACACUGAAAUGAUCAAUUCCGGUCUCCC
binds: Dbp6 ΔN [1] | Dbp6 M-II; label: 32P | Dbp6 M-I [2]

B2: ds38/58 hemi-duplex (dsRNA)
RNA 1: GGGAGACCGGAAUUCAUCAUUUCAGUGUAGCGGUUCUGACGUGCAAAUCGAUCGUCGA
RNA 2: CAGAACCGCUACACUGAAAUGAUCAAUUCCGGUCUCCC
binds: Dbp6 ΔN [3] | Dbp6 M-II; label: 32P on ss38-mer, 3' overhang 20 nt on strand 1, 38 bp region with one C-C mismatch | Dbp6 M-I [4]
